Laboratory results reported in the RNAGym collection of RNA variant scans (doi:10.1021/acssynbio.7b00057).

B1: Pistol ribozyme (parent)
chain: GGGUCGUUGUUCCAUAAUCGCGUGGAUAUGGCACGCAAGUUUCUACCGGGCACCGUAAAUGUCCGACUGGAGCCGUUCGGGCGGCUAUAAACAGACCUCAGGCCCGAAGCGUGGCGGCACCUGCCGCCGGUGGUAAAAAAGAUCGGAAGAGCACACGUCU

Variants of: B1
Experiment: aptazyme ON/OFF ratio, guanine; higher = stronger switching; co-transcriptional cleavage with and without guanine

Going from U7G U8A G9C U10A C13G to U7G U8A G9C U10A C13U, the “aptazyme ON/OFF ratio” value rises from 1.01 to 1.02.

First: U7G U8A G9C U10A C13A
Second: U7G U8A G9A U10A U11G
The “aptazyme ON/OFF ratio” value of the first is lower: 1.03 for the first, 1.28 for the second.

Compared with U7G U8A G9A U10A U11C, U7G U8A G9A U11C C13G is higher in “aptazyme ON/OFF ratio” value: 1.03 for the first, 1.06 for the second.

Going from U7G U8A G9A U11C C13A to U7G U8A G9A U11C C13U, the “aptazyme ON/OFF ratio” value falls from 1.07 to 1.06.

First: U7G U8A G9C U10A U11C C12U C13U
Second: U7G U8A G9C U10A U11C C12U C13G
The “aptazyme ON/OFF ratio” value of the first is lower: 1.04 for the first, 1.06 for the second.

Compared with U7G U8A G9C U10A U11C C12U C13A, U7G U8A G9A U10C U11G C13U is higher in “aptazyme ON/OFF ratio” value: 1.03 for the first, 1.09 for the second.

Going from U7G U8A G9A U10C U11G C13A to U7G U8A G9A U10C U11G C13G, the “aptazyme ON/OFF ratio” value rises from 1.14 to 1.15.

Compared with U7G U8A G9A U10G C12G C13U, U7G U8A G9A U10G C12G C13G is lower in “aptazyme ON/OFF ratio” value: 1.23 for the first, 1.09 for the second.

Compared with U7G U8A G9A U10G C12G C13A, U7G U8A G9C U10C U11C is lower in “aptazyme ON/OFF ratio” value: 1.1 for the first, 1.01 for the second.

Compared with U7G U8A G9C U10C U11A, U7G U8A G9A U11G C13U is higher in “aptazyme ON/OFF ratio” value: 0.986 for the first, 1.21 for the second.

First: U7G U8A G9A U11G C13A
Second: U7G U8A G9A U11G C13G
The “aptazyme ON/OFF ratio” value of the first is higher: 1.13 for the first, 1.03 for the second.

U7G U8A G9C C12U C13G and U7G U8A G9C C12U C13A are the same in “aptazyme ON/OFF ratio” value: 1.06 for the first, 1.06 for the second.

Going from U7G U8A G9C C12U C13U to U7G U8A G9C C12U, the “aptazyme ON/OFF ratio” value rises from 1.03 to 1.04.

Compared with U7G U8A G9C C12A, U7G U8A G9C C12G is lower in “aptazyme ON/OFF ratio” value: 1.02 for the first, 1.01 for the second.

Going from U7G U8A G9A U10C U11A C12A to U7G U8A G9A U10C U11A C12G, the “aptazyme ON/OFF ratio” value rises from 1.12 to 1.15.

Compared with U7G U8A G9A U10C U11A C12U, U7G U8A G9A U10G U11C C12U is higher in “aptazyme ON/OFF ratio” value: 1.08 for the first, 1.09 for the second.

First: U7G U8A G9A U10G U11C C12G
Second: U7G U8A G9A U10G U11C C12A
The “aptazyme ON/OFF ratio” value of the first is higher: 1.17 for the first, 1.13 for the second.

Compared with U7G U8A G9A U10C C12G, U7G U8A G9A U10C C12A is lower in “aptazyme ON/OFF ratio” value: 1.15 for the first, 1.1 for the second.

Going from U7G U8A G9A U10C C12U to U7G U8A G9A U10G U11C C12G C13A, the “aptazyme ON/OFF ratio” value rises from 1.09 to 1.1.

First: U7G U8A G9A U10G U11C C12G C13G
Second: U7G U8A G9A U10G U11C C12G C13U
The “aptazyme ON/OFF ratio” value of the first is lower: 1.04 for the first, 1.11 for the second.

Going from U7G U8A G9A U11C C12G C13A to U7G U8A G9A U11C C12G C13G, the “aptazyme ON/OFF ratio” value falls from 1.08 to 1.04.

First: U7G U8A G9A U11C C12G C13U
Second: U7G U8A G9A U11A C12A C13U
The “aptazyme ON/OFF ratio” value of the first is lower: 1.1 for the first, 1.21 for the second.

Compared with U7G U8A G9A U11A C12A C13A, U7G U8A G9A U11A C12A C13G is lower in “aptazyme ON/OFF ratio” value: 1.16 for the first, 1.08 for the second.

U7G U8A G9C U10C C13G and U7G U8A G9C U10C C13A are the same in “aptazyme ON/OFF ratio” value: 1.01 for the first, 1.01 for the second.

First: U7G U8A G9C U10C C13U
Second: U7G U8A G9A U10G U11A C12G C13G
The “aptazyme ON/OFF ratio” value of the first is lower: 1.04 for the first, 1.29 for the second.

Going from U7G U8A G9A U10G U11A C12G C13A to U7G U8A G9A U10G U11A C12G C13U, the “aptazyme ON/OFF ratio” value rises from 1.04 to 1.14.

Compared with U7G U8A G9A U10A U11A C12U, U7G U8A G9A U10A U11A C12G is higher in “aptazyme ON/OFF ratio” value: 1.18 for the first, 1.26 for the second.

First: U7G U8A G9C U10C C12G C13U
Second: U7G U8A G9C U10C C12G C13G
The “aptazyme ON/OFF ratio” value of the first is higher: 1.07 for the first, 1.01 for the second.

First: U7G U8A G9C U10C C12G C13A
Second: U7G U8A G9C U10A U11A C12G C13U
The “aptazyme ON/OFF ratio” value of the first is higher: 1.14 for the first, 1.02 for the second.

Compared with U7G U8A G9C U10A U11A C12G C13G, U7G U8A G9C U10A U11A C12G C13A is higher in “aptazyme ON/OFF ratio” value: 1.01 for the first, 1.04 for the second.

Going from U7G U8A G9A U10G C13G to U7G U8A G9A U10G C13U, the “aptazyme ON/OFF ratio” value rises from 1.2 to 1.35.

Compared with U7G U8A G9A U10G C13A, U7G U8A G9A U10G C12A C13A is higher in “aptazyme ON/OFF ratio” value: 1.08 for the first, 1.18 for the second.

First: U7G U8A G9A U10G C12A C13U
Second: U7G U8A G9A U10G C12A C13G
The “aptazyme ON/OFF ratio” value of the first is higher: 1.37 for the first, 1.06 for the second.

Compared with U7G U8A G9C U10A U11G C12U, U7G U8A G9C U10A U11G C12A is lower in “aptazyme ON/OFF ratio” value: 1.03 for the first, 1.02 for the second.

U7G U8A G9C U10A U11G C12G and U7G U8A G9C U10A U11G C12G C13G are the same in “aptazyme ON/OFF ratio” value: 1.03 for the first, 1.03 for the second.

Going from U7G U8A G9C U10A U11G C12G C13A to U7G U8A G9C U10A U11G C12G C13U, the “aptazyme ON/OFF ratio” value falls from 1.05 to 1.04.

First: U7G U8A G9A U10G C12U C13A
Second: U7G U8A G9A U10G C12U C13U
The “aptazyme ON/OFF ratio” value of the first is higher: 1.27 for the first, 1.13 for the second.

First: U7G U8A G9A U10G C12U C13G
Second: U7G U8A G9A U11G C12U C13U
The “aptazyme ON/OFF ratio” value of the first is lower: 1.35 for the first, 1.45 for the second.

First: U7G U8A G9A U11G C12U C13G
Second: U7G U8A G9A U11G C12U C13A
The “aptazyme ON/OFF ratio” value of the first is lower: 1.2 for the first, 1.22 for the second.

First: U7G U8A G9A U10G U11C C12U C13A
Second: U7G U8A G9A U10G U11C C12U C13G
The “aptazyme ON/OFF ratio” value of the first is lower: 1.1 for the first, 1.12 for the second.

First: U7G U8A G9A U10G U11C C12U C13U
Second: U7G U8A G9A U10G C12G
The “aptazyme ON/OFF ratio” value of the first is higher: 1.1 for the first, 1.09 for the second.

For U7G U8A G9A U10G C12U, the “aptazyme ON/OFF ratio” value was 1.52.
